Substrate: O=[N+]([O-])c1ccc(O[C@@H]2O[C@H](CO)[C@@H](O)[C@H](O)[C@H]2O)cc1
Experiment: purified protein

Protein | Km | kcat
β-glucosidase B (BglB) (Paenibacillus polymyxa) (protein) MSENTFIFPATFMWGTSTSSYQIEGGTDEGGRTPSIWDTFCQIPGKVIGGDCGDVACDHFHHFKEDVQLMKQLGFLHYRFSVAWPRIMPAAGIINEEGLLFYEHLLDEIELAGLIPMLTLYHWDLPQWIEDEGGWTQRETIQHFKTYASVIMDRFGERINWWNTINEPYCASILGYGTGEHAPGHENWREAFTAAHHILMCHGIASNLHKEKGLTGKIGITLNMEHVDAASERPEDVAAAIRRDGFINRWFAEPLFNGKYPEDMVEWYGTYLNGLDFVQPGDMELIQQPGDFLGINYYTRSIIRSTNDASLLQVEQVHMEEPVTDMGWEIHPESFYKLLTRIEKDFSKGLPILITENGAAMRDELVNGQIEDTGRHGYIEEHLKACHRFIEEGGQLKGYFVWSFLDNFEWAWGYSKRFGIVHINYETQERTPKQSALWFKQMMAKNGF | 6.5 ± 0.2 mM | 17.83 ± 0.167 s⁻¹
β-glucosidase B (BglB) (Paenibacillus polymyxa; T431I) (protein) MSENTFIFPATFMWGTSTSSYQIEGGTDEGGRTPSIWDTFCQIPGKVIGGDCGDVACDHFHHFKEDVQLMKQLGFLHYRFSVAWPRIMPAAGIINEEGLLFYEHLLDEIELAGLIPMLTLYHWDLPQWIEDEGGWTQRETIQHFKTYASVIMDRFGERINWWNTINEPYCASILGYGTGEHAPGHENWREAFTAAHHILMCHGIASNLHKEKGLTGKIGITLNMEHVDAASERPEDVAAAIRRDGFINRWFAEPLFNGKYPEDMVEWYGTYLNGLDFVQPGDMELIQQPGDFLGINYYTRSIIRSTNDASLLQVEQVHMEEPVTDMGWEIHPESFYKLLTRIEKDFSKGLPILITENGAAMRDELVNGQIEDTGRHGYIEEHLKACHRFIEEGGQLKGYFVWSFLDNFEWAWGYSKRFGIVHINYETQERIPKQSALWFKQMMAKNGF | 5.1 ± 0.1 mM | 15.3 ± 0.717 s⁻¹
β-glucosidase B (BglB) (Paenibacillus polymyxa; K337D) (protein) MSENTFIFPATFMWGTSTSSYQIEGGTDEGGRTPSIWDTFCQIPGKVIGGDCGDVACDHFHHFKEDVQLMKQLGFLHYRFSVAWPRIMPAAGIINEEGLLFYEHLLDEIELAGLIPMLTLYHWDLPQWIEDEGGWTQRETIQHFKTYASVIMDRFGERINWWNTINEPYCASILGYGTGEHAPGHENWREAFTAAHHILMCHGIASNLHKEKGLTGKIGITLNMEHVDAASERPEDVAAAIRRDGFINRWFAEPLFNGKYPEDMVEWYGTYLNGLDFVQPGDMELIQQPGDFLGINYYTRSIIRSTNDASLLQVEQVHMEEPVTDMGWEIHPESFYDLLTRIEKDFSKGLPILITENGAAMRDELVNGQIEDTGRHGYIEEHLKACHRFIEEGGQLKGYFVWSFLDNFEWAWGYSKRFGIVHINYETQERTPKQSALWFKQMMAKNGF | 4.3 ± 0.1 mM | 13.2 ± 0.667 s⁻¹
β-glucosidase B (BglB) (Paenibacillus polymyxa; M319C) (protein) MSENTFIFPATFMWGTSTSSYQIEGGTDEGGRTPSIWDTFCQIPGKVIGGDCGDVACDHFHHFKEDVQLMKQLGFLHYRFSVAWPRIMPAAGIINEEGLLFYEHLLDEIELAGLIPMLTLYHWDLPQWIEDEGGWTQRETIQHFKTYASVIMDRFGERINWWNTINEPYCASILGYGTGEHAPGHENWREAFTAAHHILMCHGIASNLHKEKGLTGKIGITLNMEHVDAASERPEDVAAAIRRDGFINRWFAEPLFNGKYPEDMVEWYGTYLNGLDFVQPGDMELIQQPGDFLGINYYTRSIIRSTNDASLLQVEQVHCEEPVTDMGWEIHPESFYKLLTRIEKDFSKGLPILITENGAAMRDELVNGQIEDTGRHGYIEEHLKACHRFIEEGGQLKGYFVWSFLDNFEWAWGYSKRFGIVHINYETQERTPKQSALWFKQMMAKNGF | 6.0 ± 0.5 mM | 15 ± 0.517 s⁻¹

Reference: publication doi:10.1101/839027v1
